Patent US11191823 (CHILDREN S MEDICAL CENTER, dated 2021)
Several values for one entry are separate records, joined by “and”; a condition that tells them apart may be missing. Equal values may be shown once.

Key:
[1] = molecular target: T1, JUNV GP1 (residues 87-235), biotinylated (Junin virus (JUNV), UniProt P26313 87-235); test: ELISA, plates coated with biotinylated antigen, IgG titrated
[2] = molecular target: T1, JUNV GP1 (residues 87-235), biotinylated; test: SPR, Fab over immobilized JUNV GP1
[3] = molecular target: T1, JUNV GP1 (residues 87-235), biotinylated
[4] = molecular target: T1, JUNV GP1 (residues 87-235), biotinylated; test: ELISA, plates coated with antigen, IgG titrated

| Binder | EC50 (read off the curve) [1] | Kd [2] | also measured |
| --- | --- | --- | --- |
| CR1-28 IgG (antibody, V domains shown) VH: QVQLVESGGGVVQPGRSLRLSCAASGFTFSSSAMHWVRQAPGKGLEWVAVIWSDGSNENYADSVKGRFTISRDNSKNTLYLQMSSLRAEDTAVYYCATDKTYVSGYTSTWYYFNYWGQGTLVTVS VL: DIQMTQSPSTLSASVGDRVTITCRASQSIDNWLAWYQQKPGKAPKLLIYTASRLESGVPSRFSGSGSGTEFTLTISSLQPDDFATYYCQHRTFGQGTKVEIK | ~0.1 µg/mL |  |  |
| CR1-28 Fab (Fab, V domains shown) VH: QVQLVESGGGVVQPGRSLRLSCAASGFTFSSSAMHWVRQAPGKGLEWVAVIWSDGSNENYADSVKGRFTISRDNSKNTLYLQMSSLRAEDTAVYYCATDKTYVSGYTSTWYYFNYWGQGTLVTVS VL: DIQMTQSPSTLSASVGDRVTITCRASQSIDNWLAWYQQKPGKAPKLLIYTASRLESGVPSRFSGSGSGTEFTLTISSLQPDDFATYYCQHRTFGQGTKVEIK |  | 5.3 nM |  |
| GD01 IgG (antibody, V domains shown) VH: EVKLQQSGAELARPGTSVKLSCKASGYTFTNYWMQWIKQRPGQGLEWIGAVYPGDGDTRFSQKFKGKATLTADKSSSTAYMQLSSLSSEDSAVYFCARRRVYYGSNYIYALDYWGQGTSVTVSA VL: DIVMTQSQKFMSTSIGDRVSITCKASQNVGSAVAWYQQKPGQSPKLLIYSASNRYTGVPDRFIGSESGTDFTLTISNMQSEDLADYFCQQYSSYPLAFGAGTKLELK |  |  | IC50 (read off the curve) [3]: ~8 µg/mL and ~7 µg/mL and ~10 µg/mL; EC50 (read off the curve) [4]: ~0.1 µg/mL |
| CR1-07 IgG (antibody, V domains shown) VH: QVQLVESGGGVVHPGRSLRLSCAASGFTFGTSIMHWVRQAPGKGMQWVAQISHDESRKFYSDSVKGRFTVSRDNSKNTLFLEMSSLRIEDTAVYYCAKDLSPPYSYAWDIFQYWGQGSLVTVS VL: DIVMTQSPESLAVSLGERATINCKSSQSVLYSSRSDNKDYLAWYQQKPGQSPKLLIYWASTRESGVPERFTGSGSGTDFTLSISSLQAEDVAVYYCQQYYSSPPTFGGGTKVELK | ~0.2 µg/mL |  |  |
| CR1-07 Fab (Fab, V domains shown) VH: QVQLVESGGGVVHPGRSLRLSCAASGFTFGTSIMHWVRQAPGKGMQWVAQISHDESRKFYSDSVKGRFTVSRDNSKNTLFLEMSSLRIEDTAVYYCAKDLSPPYSYAWDIFQYWGQGSLVTVS VL: DIVMTQSPESLAVSLGERATINCKSSQSVLYSSRSDNKDYLAWYQQKPGQSPKLLIYWASTRESGVPERFTGSGSGTDFTLSISSLQAEDVAVYYCQQYYSSPPTFGGGTKVELK |  | 86.2 nM |  |
